The values that follow come from paper PMC5175368.

For this data set, the target named is PA63 (cleaved protective antigen) (Bacillus anthracis) (UniProt P13423). Nature of the data set: filter binding. The note with it: N15 and N23 = AEGIS dP.
PA63 (cleaved protective antigen) (Bacillus anthracis), sequence (P13423 197-764): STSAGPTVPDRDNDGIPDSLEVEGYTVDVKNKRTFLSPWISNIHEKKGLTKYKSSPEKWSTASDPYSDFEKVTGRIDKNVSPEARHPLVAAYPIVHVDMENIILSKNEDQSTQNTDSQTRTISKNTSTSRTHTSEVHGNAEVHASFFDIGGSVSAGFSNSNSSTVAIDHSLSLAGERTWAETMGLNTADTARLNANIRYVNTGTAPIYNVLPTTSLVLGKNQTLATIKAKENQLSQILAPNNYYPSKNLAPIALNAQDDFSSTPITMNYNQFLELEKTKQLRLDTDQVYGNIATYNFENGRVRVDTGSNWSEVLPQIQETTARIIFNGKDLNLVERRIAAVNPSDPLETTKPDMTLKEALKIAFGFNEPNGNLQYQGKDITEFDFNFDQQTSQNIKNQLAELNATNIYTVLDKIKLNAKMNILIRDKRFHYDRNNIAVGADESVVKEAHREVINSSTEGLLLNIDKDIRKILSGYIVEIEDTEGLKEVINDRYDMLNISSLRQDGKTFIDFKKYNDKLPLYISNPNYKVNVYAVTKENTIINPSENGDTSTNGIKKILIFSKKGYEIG

Regarding “CGTGTAAACCATGGNGTGAGTGNGTAGGTGTCCTGAGGAGGT [PA1T4A6A7]”, the Kd was determined as 2290 nM.

A word on the Kd: it is the constant that tells how readily two partners part at equilibrium. Low readings indicate tighter binding, high ones weaker binding.
